Laboratory results taken from the supplement of paper PMC11780869.

System: Bacillus subtilis
Experiment: cleaved RNA product abundance (RNA/gDNA barcode ratio) relative to median wild-type variant (ratio to wild type); higher = more accumulation of the downstream cleavage product
How it was run: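 Truncated aprE or tetM reporter mRNAs with barcoded RNase Y cleavage-site windows, mutagenized from oligos at a 9% error rate, sat in the B. subtilis chromosome. Cells grew in LB at 37°C from OD600 0.0003 to 0.3. Gel-selected cleaved RNA was reverse transcribed and its barcodes sequenced with those from genomic DNA, collapsing by UMI. Cleaved product abundance equals the RNA:gDNA barcode ratio per construct over the median construct with the unmutated site.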

[1] = experiment (reporter, strain, medium): exp 2b: truncated aprE reporter, strain BJT200, cleavage site: cggR-gapA (positions -7 to +36 mutated)
[2] = experiment (reporter, strain, medium): exp 4a: truncated aprE reporter, strain BJT201 with 2% xylose (RNase J1 expressed), cleavage site: cggR-gapA (positions -7 to +36 mutated)
[3] = experiment (reporter, strain, medium): exp 8a: truncated aprE reporter, strain BJT201 with 2% xylose (RNase J1 expressed), cleavage site: glnRA (positions -5 to +31 mutated)
[4] = experiment (reporter, strain, medium): exp 6: tetM reporter, strain 168, cleavage site: cggR-gapA (positions -7 to +36 mutated)

Row | Sequence | cleaved RNA product abundance [2] | cleaved RNA product abundance [3] | also measured
1 | ACAGACGAAGGAGCCGCAAAGAAGTTATTAAGGTATGAATAATTCCTCAATATAAATATCTCTCACTTATTTAAA | 0.156 |  | cleaved RNA product abundance [1]: 0.0842
2 | CGACATGTCCCGCTTCTTTCATTAATCCGTTAGCAACCGTTATGCTATATACATTTACCTTTTAAGAGGAGGAAT |  | 0.316 | 
3 | ACAGACGAAGGAGCCGCAAAGAAGTAATTAAGTGATGAATAATCCCTCAATATAAATATCTCTCACTTATTTAAA | 0.0789 |  | 
4 | ACAGACGAAGGAGCCGCAAGGAAGTTATTAAGGGATGAATAATCCCTCAATATACATATCTCTCACTTATTTAAA | 0.774 |  | 
5 | CGACATGTCCCGCTTCTTTCATTATTCCGTTAACAACTGTTTTGCTATATACTTTTACCTTTTAAGAGGAGGAAT |  | 0.273 | 
6 | ACAGACGAAGGAGCCGCAAAGAAGTTATTAAGGGATGGATAATCCCTCAATATAAATATCTCTCACTTATTTAAA | 0.884 |  | cleaved RNA product abundance [1]: 0.623; cleaved RNA product abundance [4]: 0.969
7 | ACAGACGAAGGAGCCGCAAAGAAGTTATTAAGGGATGAACAATCCCTCAATATATATATCTCTCACTTATTTAAA | 0.441 |  | 
8 | CGACATGTCCCGCTTCTTTCATTAATCCGTTAGCAACTGTTTTGCTATATCCATTGACCTTTTAAGAGGAGGAAT |  | 0.461 | 
9 | CGACATGTCCCGCTTCTTTCATTAATCAGTTAGCAACTGTTTTGCTATATACATTAACCTTTTAAGAGGAGGAAT |  | 0.984 | 
10 | ACAGACGAAGGAGCCGCAAACAAGTTATTAAGGGATGAATAATCCCTCAATATAACTATCTCTCACTTATTTAAA | 0.0791 |  | 
11 | CGACATGTCCCGCTTCTTTCATTAATCTGTTAGCAACTGTTTTTCTATATACATTTACCTTTTAAGAGGAGGAAT |  | 0.483 | 
12 | CGACATGTCCCGCTTCTTTCATTAATCCGTTAGAAACTGTTTTGCTATATATATTTACCTTTTAAGAGGAGGAAT |  | 0.272 | 
13 | ACAGACGAAGGAGCCGCAAAGAAGTTATTAAGGGATGAATAATCAATCAATATAAATATCTCTCACTTATTTAAA | 0.107 |  | cleaved RNA product abundance [1]: 0.13
14 | CGACATGTCCCGCTTCTTTCATTAATCCATTAGCAACTGTTTTGCTATATACATTTATCTTTTAAGAGGAGGAAT |  | 0.777 | 
15 | CGACATGTCCCGCTTCTTTCATTAATCCGTTAGCAACTGTTTTGCTAAATTCATTTACCTTTTAAGAGGAGGAAT |  | 0.133 | 
16 | CGACATGTCCCGCTTCTTTCATTAATCCGTTAGCAACTGTTTTGCTATATATATTTATCTTTTAAGAGGAGGAAT |  | 1.3 | 
17 | ACAGACGAAGGAGCCGCAAAGAAGTTATTATGGGATGAATAATCCCTGAATATAAATATCTCTCACTTATTTAAA | 0.663 |  | 
18 | CGACATGTCCCGCTTCTTTCATTAATCCGTTAGCAACTGTTTTGCTATATACATTAACTTTTTAAGAGGAGGAAT |  | 1.71 | 
19 | ACAGACGAAGGAGCCGCAAAAAAGGTATTAAGGGATGAATAATCCCTCAATATAAATATCTCTCACTTATTTAAA | 0.879 |  | cleaved RNA product abundance [1]: 1.78
20 | CGACATGTCCCGCTTCTTTCATTAATCCGTTATCAACTGTTTTGTTATATACATTTACCTTTTAAGAGGAGGAAT |  | 0.272 | 
21 | ACAGACGAAGGAGCCGCAAAGAAGTTATTAACGGATGAATAATCCCTCAATATAAATATCTCTCACTTATTTAAA | 0.177 |  | cleaved RNA product abundance [1]: 0.133; cleaved RNA product abundance [4]: 0.195
22 | CGACATGTCCCGCTTCTTTCATTAATCCGTTAGCAACTGTTTTGCTATATAAATTTACGTTTTAAGAGGAGGAAT |  | 1.02 | 
23 | ACAGACGAAGGAGCCGCAAAAAAGTTATTAAGGGATGAATAATCCCTCAATATAGATATCTCTCACTTATTTAAA | 0.644 |  | cleaved RNA product abundance [1]: 0.991

Row | Sequence | cleaved RNA product abundance [2] | cleaved RNA product abundance [3] | also measured
24 | ACAGACGAAGGAGCCGCAAAGATGTTATTAAGGGATAAATAATCCCTCAATATAAATATCTCTCACTTATTTAAA | 0.906 |  | 
25 | ACAGACGAAGGAGCCGCAAAGAAGTTATTAAGAGAGGAATAATCCCTCAATATAAATATCTCTCACTTATTTAAA | 0.199 |  | 
26 | ACAGACGAAGGAGCCGCAAATAAGTTATTAAGGGATGAATAATCCCACAATATAAATATCTCTCACTTATTTAAA | 0.187 |  | cleaved RNA product abundance [1]: 0.233
27 | CGACATGTCCCGCTTCTTTCATTAATCCGTTATCAACTGTTTTGCTATATACATTTAACTTTTAAGAGGAGGAAT |  | 0.291 | 
28 | ACAGACGAAGGAGCCGCAACGAAGTAATTAAGGGATGAATAATCCCTCAATATAAATATCTCTCACTTATTTAAA | 0.347 |  | 
29 | ACAGACGAAGGAGCCGCAAAGAAGTTATTAAAGGATGAATAATCCCTCAATATAAATCTCTCTCACTTATTTAAA | 0.208 |  | 
30 | ACAGACGAAGGAGCCGCAAACAAGTTACTAAGGGATGAATAATCCCTCAATATAAATATCTCTCACTTATTTAAA |  |  | cleaved RNA product abundance [1]: 0.169
31 | ACAGACGAAGGAGCCGCAAAGAAGTTATTAAGGGACGAATAACCCCTCAATATAAATATCTCTCACTTATTTAAA | 0.19 |  | 
32 | ACAGACGAAGGAGCCGCAAAGAAGTTATTAAGGGATGAATAATCCCTCAATAGAAATACCTCTCACTTATTTAAA | 0.0433 |  | 
33 | ACAGACGAAGGAGCCGCAAATTAGTTATTAAGGGATGAATAATCCCTCTATATAAATATCTCTCACTTATTTAAA | 0.215 |  | 
34 | ACAGACGAAGGAGCCGCAAAGAAGTTATGAAGGGATGAATAATCCCTCAATATAAATATCTCTCACTTATTTAAA | 0.502 |  | cleaved RNA product abundance [1]: 0.384; cleaved RNA product abundance [4]: 0.205
35 | ACAGACGAAGGAGCCGCATAGAAGTTATTAAGGTATGAATAATCCCTCAATATAAATATCTCTCACTTATTTAAA | 0.159 |  | 
36 | CGACATGTCCCGCTTCTTTCATTAATCCGTTAGCAACTGTTTTGCTATATACATTTACGTTTTAAGAGGAGGAAT |  | 1.12 | 
37 | ACAGACGAAGGAGCCGCAAAGATGTTATTAAGAGATGAATAATCCCTCAATATAAATATCTCTCACTTATTTAAA | 0.156 |  | 
38 | ACAGACGAAGGAGCCGCAAAGAAGTTATTAAGGGATGAATAATCCCCCAATATAAATATCTCTCACTTATTTAAA | 0.36 |  | cleaved RNA product abundance [1]: 0.285; cleaved RNA product abundance [4]: 0.457
39 | CGACATGTCCCGCTTCTTTCATTATTCCGTTAGCCACTGTTTTGCTATATACATTTACCTTTTAAGAGGAGGAAT |  | 0.595 | 
40 | ACAGACGAAGGAGCCGCAAAGAAGTTATTAAAGCATTAATAATCCCTCAATATAAATATCTCTCACTTATTTAAA | 0.134 |  | 
41 | ACAGACGAAGGAGCCGCAAAGAAGTTATTAAGGGATTAATAATCCGTCAATATAAATATCTCTCACTTATTTAAA | 0.165 |  | 
42 | ACAGACGAAGGAGCCGCAAAGAATTTATTAAGGGGTGAATAATCCCTCAATATAAATATCTCTCACTTATTTAAA | 0.526 |  | 
43 | ACAGACGAAGGAGCCGCAAAGAAGTTATTAAGGGCTGAATAATCCCTTAATATAAATATCTCTCACTTATTTAAA | 0.626 |  | 
44 | ACAGACGAAGGAGCCGCAAAGAAGTTATTAAGGGATGAATAATGCCTCAATAGAAATATCTCTCACTTATTTAAA | 0.0653 |  | 
45 | ACAGACGAAGGAGCCGCAAAGAAGATATTAAGAGATGAATAATCCCTCAATATAAATATCTCTCACTTATTTAAA | 0.221 |  | cleaved RNA product abundance [1]: 0.128
46 | ACAGACGAAGGAGCCGCAAAGAAGTTATTAAGGGAGGAATAATCCCTCAAGATAAATATCTCTCACTTATTTAAA | 0.152 |  | 
